Results published in article PMC10694151, “Regulation of the cell division hydrolase RipC by the FtsEX system in Mycobacterium tuberculosis” (Nature Communications, 2023).

Biological target: T1, RipC (Rv2190c) of Mycobacterium tuberculosis, construct RipCΔ33 (Mycobacterium tuberculosis, UniProt P9WHU3 34-385)
T1 construct: also called MtbRipC; RipC∆33
T1 sequence: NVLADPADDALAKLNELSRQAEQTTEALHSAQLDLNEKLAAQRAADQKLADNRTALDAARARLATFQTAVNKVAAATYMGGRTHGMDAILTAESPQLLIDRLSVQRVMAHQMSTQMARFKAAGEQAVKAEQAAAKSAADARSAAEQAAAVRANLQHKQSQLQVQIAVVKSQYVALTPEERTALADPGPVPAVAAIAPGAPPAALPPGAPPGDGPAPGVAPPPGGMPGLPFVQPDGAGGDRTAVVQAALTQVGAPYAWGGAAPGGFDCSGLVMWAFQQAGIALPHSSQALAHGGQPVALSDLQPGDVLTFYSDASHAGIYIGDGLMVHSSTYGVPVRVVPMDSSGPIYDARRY
Experiment: cryo-EM structure; FtsEX or FtsEX-RipC in peptidiscs, 3 mg/ml, ATP-free
Conditions: both partners purified

B1: FtsX (Rv3101c) of Mycobacterium tuberculosis (natural protein)
chain: MRFGFLLNEVLTGFRRNVTMTIAMILTTAISVGLFGGGMLVVRLADSSRAIYLDRVESQVFLTEDVSANDSSCDTTACKALREKIETRSDVKAVRFLNRQQAYDDAIRKFPQFKDVAGKDSFPASFIVKLENPEQHKDFDTAMKGQPGVLDVLNQKELIDRLFAVLDGLSNAAFAVALVQAIGAILLIANMVQVAAYTRRTEIGIMRLVGASRWYTQLPFLVEAMLAATMGVGIAVAGLMVVRALFLENALNQFYQANLIAKVDYADILFITPWLLLLGVAMSGLTAYLTLRLYVRR
notes: also called MtbFtsX
binding result: binds
